Reference: EP1652858A1
Where two headings read alike, the source gives them in different places.

Tests used:
HLA-B0801 (human) [1] = test: competition binding assay with labelled reference peptide
HLA-A0101 (human) = test: competition vs labelled reference peptide
HLA-B*0702 (human) [2] = test: competition binding assay, purified HLA, labelled probe peptide
HLA-A0201 (human) = test: competition vs labelled reference peptide
HLA-A2402 (human) = test: competition vs labelled reference peptide
HLA-B0702 (human) = test: competition vs labelled reference peptide
HLA-B*0702 (human) [3] = test: competition binding assay against a labelled reference peptide; Ki from IC50; conditions: remark: other sources report otherwise
HLA-Cw0702 (human) = test: competition binding assay with labelled reference peptide
HLA-B*3501 (human) = test: competition binding assay, purified HLA, labelled probe peptide
HLA-B0801 (human) [4] = test: competition vs labelled reference peptide; conditions: remark: other sources report otherwise
[5] = remark: other sources report otherwise

TIMAKNEVF (modifications not checked)
Ki (HLA-B0801 (human) [1]): 6 nM

LTCGFADLM (modifications not checked)
Ki (HLA-A0101 (human)): 3550 nM

LPRRGPRLG (modifications not checked)
IC50 (HLA-B*0702 (human) [2]): 124 nM

KSTKVPAAY (modifications not checked)
Ki (HLA-A0101 (human); [5]): 950 nM

SVFTGLTHI (modifications not checked)
Ki (HLA-A0201 (human); [5]): 101 nM

TLWARMILM (modifications not checked)
Ki (HLA-A2402 (human)): 2640 nM

APLGGAARAL (modifications not checked)
Ki (HLA-B0702 (human); [5]): 1 nM | IC50 (HLA-B*0702 (human) [2]; [5]): 0.8 nM | Ki (HLA-B*0702 (human) [3]): 1 nM

QPRGRRQPI (modifications not checked)
Ki (HLA-B0702 (human); [5]): 1 nM | Ki (HLA-B0801 (human) [1]; [5]): 3 nM | Ki (HLA-B*0702 (human) [3]): 1 nM

VMGSSYGF (modifications not checked)
Ki (HLA-A2402 (human); [5]): 33 nM

SMVGNWAKV (modifications not checked)
Ki (HLA-A0201 (human)): 158 nM

GLGWAGWLL (modifications not checked)
Ki (HLA-A2402 (human)): 68 nM

KVLVLNPSV (modifications not checked)
Ki (HLA-A0201 (human)): 50 nM

ARLIVFPDL (modifications not checked)
Ki (HLA-Cw0702 (human)): 514 nM

MALYDVVST (modifications not checked)
Ki (HLA-A0201 (human)): 1140 nM

KPTLHGPTPL (modifications not checked)
Ki (HLA-B0702 (human); [5]): 6 nM | IC50 (HLA-B*0702 (human) [2]; [5]): 5.8 nM | Ki (HLA-B*0702 (human) [3]): 6 nM

APTGSGKST (modifications not checked)
Ki (HLA-B0702 (human)): 370 nM | IC50 (HLA-B*0702 (human) [2]): 370 nM

YQATVCARA (modifications not checked)
Ki (HLA-A0201 (human)): 20 nM

FIPVESMET (modifications not checked)
Ki (HLA-A0201 (human)): 934 nM

TPGERPSGM (modifications not checked)
Ki (HLA-B0702 (human)): 199 nM | IC50 (HLA-B*0702 (human) [2]): 199 nM

FTDNSSPPA (modifications not checked)
Ki (HLA-A0101 (human)): 10 nM

YYRGLDVSVI (modifications not checked)
Ki (HLA-A2402 (human)): 437 nM

YLFNWAVRT (modifications not checked)
Ki (HLA-A0201 (human)): 29 nM

NIIMYAPTL (modifications not checked)
Ki (HLA-A0201 (human)): 70 nM

IMAKNEVFCV (modifications not checked)
Ki (HLA-A0201 (human); [5]): 199 nM

ALAHGVRVL (modifications not checked)
Ki (HLA-A0201 (human); [5]): 674 nM | Ki (HLA-B0702 (human); [5]): 7950 nM

PAAYAAQGY (modifications not checked)
Ki (HLA-A0101 (human)): 1610 nM

LPAILSPGAL (modifications not checked)
IC50 (HLA-B*3501 (human)): 550 nM

SWDQMWKCL (modifications not checked)
Ki (HLA-A2402 (human); [5]): 670 nM

LPRRGPRL (modifications not checked)
Ki (HLA-B0702 (human); [5]): 1 nM | Ki (HLA-B0801 (human) [1]; [5]): 6 nM

YIPLVGAPL (modifications not checked)
Ki (HLA-A0201 (human); [5]): 337 nM

LPRRGPRLGV (modifications not checked)
Ki (HLA-B0702 (human); [5]): 3 nM | Ki (HLA-B*0702 (human) [3]): 3 nM

QIVGGVYLL (modifications not checked)
Ki (HLA-A0201 (human)): 228 nM

AQPGYPWPL (modifications not checked)
Ki (HLA-A0201 (human)): 382 nM

PFYGKAIPI (modifications not checked)
Ki (HLA-A2402 (human)): 4 nM

YLKGSSGGPL (modifications not checked)
Ki (HLA-B0801 (human) [1]): 10 nM

AARALAHGV (modifications not checked)
Ki (HLA-B0702 (human)): 209 nM

DLCGSVFLV (modifications not checked)
Ki (HLA-A0201 (human); [5]): 789 nM

LVLNPSVAA (modifications not checked)
Ki (HLA-A0201 (human)): 2880 nM

GLTHIDAHF (modifications not checked)
Ki (HLA-A2402 (human)): 10 nM

CYDAGCAWY (modifications not checked)
Ki (HLA-A0101 (human); [5]): > 20000 nM

FLLALLSCLT (modifications not checked)
Ki (HLA-A0201 (human)): 132 nM

AVMGSSYGF (modifications not checked)
Ki (HLA-A2402 (human); [5]): 10 nM

PLLLLLLAL (modifications not checked)
Ki (HLA-A0201 (human)): 6550 nM

CLVDYPYRL (modifications not checked)
Ki (HLA-A0201 (human)): 437 nM

EARQAIRSL (modifications not checked)
Ki (HLA-B0801 (human) [4]): 9 nM

VIDTLTCGF (modifications not checked)
Ki (HLA-A0101 (human)): 1130 nM

AAKLSALGL (modifications not checked)
Ki (HLA-B0702 (human)): 277 nM | IC50 (HLA-B*0702 (human) [2]): 277 nM

MGSSYGFQY (modifications not checked)
Ki (HLA-A0101 (human); [5]): 1020 nM

LYGNEGLGW (modifications not checked)
Ki (HLA-A2402 (human)): 5 nM

TYSTYGKF (modifications not checked)
Ki (HLA-A2402 (human)): 192 nM

GMFDSSVLC (modifications not checked)
Ki (HLA-A0201 (human)): 71 nM

APTLWARMIL (modifications not checked)
Ki (HLA-B0702 (human); [5]): 1 nM | Ki (HLA-B*0702 (human) [3]): 1 nM

NLPGCSFSI (modifications not checked)
Ki (HLA-A0201 (human); [5]): 83 nM | Ki (HLA-A2402 (human); [5]): 8 nM

RLYIGGPLT (modifications not checked)
Ki (HLA-A0201 (human)): 845 nM

VRVCEKMAL (modifications not checked)
Ki (HLA-Cw0702 (human)): 377 nM

FTEAMTRYS (modifications not checked)
Ki (HLA-A0101 (human)): 6610 nM

ATLGFGAYM (modifications not checked)
Ki (HLA-B0702 (human)): 13000 nM

FWAKHMWNF (modifications not checked)
Ki (HLA-A2402 (human)): 2 nM

TYSTYGKFL (modifications not checked)
Ki (HLA-Cw0702 (human)): 1020 nM

LVDILAGYGA (modifications not checked)
Ki (HLA-A0101 (human)): 419 nM

TWAQPGYPW (modifications not checked)
Ki (HLA-A2402 (human)): 8 nM

WLGNIIMYA (modifications not checked)
Ki (HLA-A0201 (human); [5]): 33 nM

PAVPQTFQV (modifications not checked)
Ki (HLA-A2402 (human)): 991 nM

APLGGAARA (modifications not checked)
Ki (HLA-B0702 (human)): 115 nM | IC50 (HLA-B*0702 (human) [2]): 115 nM

IMACMSADL (modifications not checked)
Ki (HLA-A0201 (human); [5]): 66 nM

LADGGCSGGAY (modifications not checked)
Ki (HLA-A0101 (human)): 60 nM

IPLVGAPL (modifications not checked)
Ki (HLA-B0801 (human) [4]): 20 nM | IC50 (HLA-B*0702 (human) [2]): 25 nM

RTKLKLTPI (modifications not checked)
Ki (HLA-B0801 (human) [1]): 2 nM
